Source: patent publication US20260242478A1 (published 2026)
Where no end group is shown, it is not given here.

B1: Phage-1118 (peptide)
peptide: YCDGHRAEYMLKCL
notes: Peptide-87 library clone, tested as clonal phage (peptide fused to pIII of the bacteriophage)
B2: Phage-1124 (peptide)
peptide: YCEGHSSQWMWKCL
notes: as for B1
B3: Phage-1119 (peptide)
peptide: YCEGHLVQYMQKCL
notes: as for B1
B4: Phage-1117 (peptide)
peptide: YCAGHMPIYMTKCL
notes: as for B1
B5: Phage-1116 (peptide)
peptide: YCQGHSVEHMAKCL
notes: as for B1
B6: Phage-1123 (peptide)
peptide: YCDGHSPAYLQKCL
notes: as for B1
B7: Phage-1127 (peptide)
peptide: YCEGHQPAYMEKCL
notes: as for B1
B8: Phage-1120 (peptide)
peptide: YCMGHLPIYMEKCL
notes: as for B1
B9: Phage-1128 (peptide)
peptide: YCDGHAEEYRMKCL
notes: as for B1
B10: Phage-1129 (peptide)
peptide: YCDGHLPVYMTKCL
notes: as for B1
B11: Phage-1121 (peptide)
peptide: YCEGHLPRYMLKCL
notes: as for B1
B12: Phage-1126 (peptide)
peptide: YCEGHSTEYMAKCL
notes: as for B1
B13: Phage-1125 (peptide)
peptide: YCEGHFPLYMNKCL
notes: as for B1
B14: Phage-1122 (peptide)
peptide: YCDGHLEVYMDKCL
notes: as for B1
B15: Phage-1286 (peptide)
peptide: YCDGHLPRFMVKCL
modifications: cysteine pairing not given here; also: fused to phage pIII protein, pIII and linker sequence not given here
notes: Peptide-87 library clone on clonal phage (crude supernatant); not shown: fused to the pIII filament protein of the bacteriophage
B16: Phage-1282 (peptide)
peptide: YCQGHALQYLQKCL
modifications: cysteine pairing not given here; also: fused to phage pIII protein, pIII and linker sequence not given here
notes: as for B15
B17: Phage-1277 (peptide)
peptide: YCDGHNPVYLAKCL
modifications: cysteine pairing not given here; also: fused to phage pIII protein, pIII and linker sequence not given here
notes: as for B15
B18: Phage-1278 (peptide)
peptide: YCEGHAQQYMLKCL
modifications: cysteine pairing not given here; also: fused to phage pIII protein, pIII and linker sequence not given here
notes: as for B15
B19: Phage-1273 (peptide)
peptide: YCEGHSSEYMVKCL
modifications: cysteine pairing not given here; also: displayed on phage by fusion to pIII, linker and pIII sequence not given here
notes: as for B15
B20: Phage-1280 (peptide)
peptide: YCEGHFGMYMSKCL
modifications: cysteine pairing not given here; also: fused to phage pIII protein, pIII and linker sequence not given here
notes: as for B15
B21: Phage-1276 (peptide)
peptide: YCDGHAGIYVLKCL
modifications: cysteine pairing not given here; also: fused to phage pIII protein, pIII and linker sequence not given here
notes: as for B15
B22: Phage-1274 (peptide)
peptide: YCDGHTGVYKWKCI
modifications: cysteine pairing not given here; also: fused to phage pIII protein, pIII and linker sequence not given here
notes: as for B15
B23: Phage-1281 (peptide)
peptide: YCAGHMPQYMSKCL
modifications: cysteine pairing not given here; also: fused to phage pIII protein, pIII and linker sequence not given here
notes: as for B15
B24: Phage-1279 (peptide)
peptide: YCAGHSVQYMYKCL
modifications: cysteine pairing not given here; also: fused to phage pIII protein, pIII and linker sequence not given here
notes: as for B15
B25: Phage-1284 (peptide)
peptide: YCEGHLPWYMSKCL
modifications: cysteine pairing not given here; also: fused to phage pIII protein, pIII and linker sequence not given here
notes: as for B15
B26: Phage-1285 (peptide)
peptide: YCDGHHLEYIDKCL
modifications: cysteine pairing not given here; also: fused to phage pIII protein, pIII and linker sequence not given here
notes: as for B15
B27: Phage-1283 (peptide)
peptide: YCAGHLPQYVSKCL
modifications: cysteine pairing not given here; also: fused to phage pIII protein, pIII and linker sequence not given here
notes: as for B15
B28: Phage-1275 (peptide)
peptide: YCAGHIGEYMDKCL
modifications: cysteine pairing not given here; also: fused to phage pIII protein, pIII and linker sequence not given here
notes: as for B15
B29: Phage-1115 (Peptide-87 library clone, SEQ ID NO: 1431) (peptide)
peptide: YCDGHAPQYMAKCI
notes: Tested as clonal phage supernatant; not shown: pIII coat protein of the bacteriophage to which the peptide is fused
B30: Phage-1114 (Peptide-87 library clone, SEQ ID NO: 1430) (peptide)
peptide: YCEGHSLEYMMKCV
notes: as for B29
B31: Phage-1360 peptide (Peptide-92 library sequence, SEQ ID NO: 1656) (peptide)
peptide: TCSAGATYAWPFCL
B32: Phage-1361 peptide (Peptide-92 library sequence, SEQ ID NO: 1657) (peptide)
peptide: MCAAGATYPWPACL
modifications: cysteine pairing not given here; also: fused to phage pIII protein

target: Anti-CD28 Fab (SEQ ID NOs: 696, 697); assay: phage ELISA, clonal phage supernatant on biotinylated anti-CD28 Fab captured on neutravidin plates
Target sequence in this assay (VH, as listed by the source, chain 1 of 2): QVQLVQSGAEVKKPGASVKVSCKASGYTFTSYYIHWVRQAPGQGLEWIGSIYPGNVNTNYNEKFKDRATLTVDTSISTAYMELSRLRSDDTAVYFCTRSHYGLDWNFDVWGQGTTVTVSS
Target sequence in this assay (VL, as listed by the source, chain 2 of 2): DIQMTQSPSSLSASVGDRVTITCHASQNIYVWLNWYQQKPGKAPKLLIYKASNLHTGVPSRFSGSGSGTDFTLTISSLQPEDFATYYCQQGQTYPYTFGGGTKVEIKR
Procedure: (§1) After panning, phage infected bacteria were plated out and colonies picked into 96 well blocks. Clonal phage was then amplified and separated from bacterial cells via centrifugation.
(§2) Clonal phage were harvested as crude supematants and screened via standard ELISAs. […] Prior to the addition of clonal phage, wells were incubated with blocking buffer and CD28 antigen or blocking buffer alone. Without washing or aspirating, clonal phage supematants were then added to the wells and incubated for a short time. Wells were then washed followed by detection of bound phage using a horse radish conjugated anti-M13 antibody. Clonal phage of interest were then sent for sequence analysis.

| Binder | Anti-CD28 Fab signal (phage binding ELISA) |
| --- | --- |
| B1 | 1.29 |
| B2 | 1.27 |
| B3 | 1.28 |
| B4 | 1.3 |
| B5 | 1.3 |
| B6 | 1.28 |
| B7 | 1.27 |
| B8 | 1.28 |
| B9 | 1.27 |
| B10 | 1.27 |
| B11 | 1.28 |
| B12 | 1.27 |
| B13 | 1.27 |
| B14 | 1.28 |

target: T1, Anti-CD28 Fab (SEQ ID NOs: 696, 697); assay: phage ELISA; Fab on plate pre-incubated with CD28 antigen as competitor, anti-M13 HRP detection
T1 construct: Used biotinylated and captured on neutravidin coated plates in the phage ELISA
T1 sequence (VH, as listed by the source, chain 1 of 2): as the sequence (VH, as listed by the source, chain 1 of 2) above
T1 sequence (VL, as listed by the source, chain 2 of 2): as the sequence (VL, as listed by the source, chain 2 of 2) above
Procedure: as §1, §2

| Binder | Phage binding ELISA, Anti-CD28 Fab signal in the presence of CD28 |
| --- | --- |
| B15 | 0.07 |
| B16 | 0.08 |
| B17 | 0.08 |
| B18 | 0.05 |
| B19 | 0.06 |
| B20 | 0.07 |
| B21 | 0.08 |
| B22 | 0.06 |
| B23 | 0.05 |
| B24 | 0.06 |
| B25 | 0.09 |
| B26 | 0.06 |
| B27 | 0.06 |
| B28 | 0.58 |

target: T2, Anti-CD28 Fab (SEQ ID NOs: 696, 697); assay: phage ELISA; biotinylated anti-CD28 Fab on neutravidin plate, clonal phage supernatant, anti-M13 HRP detection;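 note: crude supernatants of single phage clones picked after panning were screened for binding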
T2 construct: In the phage ELISA the Fab was biotinylated and captured on neutravidin coated plates
T2 sequence (VH, as listed by the source, chain 1 of 2): as the sequence (VH, as listed by the source, chain 1 of 2) above
T2 sequence (VL, as listed by the source, chain 2 of 2): as the sequence (VL, as listed by the source, chain 2 of 2) above

| Binder | Anti-CD28 Fab signal (phage binding ELISA) |
| --- | --- |
| B29 | 1.3 |
| B30 | 1.3 |

target: Anti-CD28 Fab (SEQ ID NOs: 696, 697); assay: phage binding ELISA; biotinylated anti-CD28 Fab on neutravidin plate, clonal phage supernatant, anti-M13 HRP detection;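 note: wells pretreated with blocking buffer, either plus or minus CD28 antigen, then given crude phage supernatant briefly without washing in between, then washed before anti-M13 HRP readout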
Target sequence in this assay (VH, as listed by the source, chain 1 of 2): as the sequence (VH, as listed by the source, chain 1 of 2) above
Target sequence in this assay (VL, as listed by the source, chain 2 of 2): as the sequence (VL, as listed by the source, chain 2 of 2) above
Procedure: Clonal phage were harvested as crude supematants and screened via standard ELISAs. […] Prior to the addition of clonal phage, wells were incubated with blocking buffer and CD28 antigen or blocking buffer alone. Without washing or aspirating, clonal phage supematants were then added to the wells and incubated for a short time. Wells were then washed followed by detection of bound phage using a horse radish conjugated anti-M13 antibody.

| Binder | Anti-CD28 Fab (SEQ ID NOs: 696, 697) signal |
| --- | --- |
| B31 | 2.31 |
| B32 | 2.3 |

target: T1, Anti-CD28 Fab (SEQ ID NOs: 696, 697); assay: phage ELISA; biotinylated Fab on neutravidin plate, clonal phage supernatant, anti-M13 HRP detection
Procedure: as §1, §2

| Binder | Phage binding ELISA, Anti-CD28 Fab (SEQ ID NOs: 696, 697) signal |
| --- | --- |
| B15 | 0.69 |
| B16 | 0.71 |
| B17 | 0.74 |
| B18 | 0.74 |
| B19 | 0.77 |
| B20 | 0.73 |
| B21 | 0.75 |
| B22 | 0.76 |
| B23 | 0.72 |
| B24 | 0.74 |
| B25 | 0.69 |
| B26 | 0.69 |
| B27 | 0.7 |
| B28 | 0.75 |

target: Anti-CD28 Fab (SEQ ID NOs: 696, 697); assay: phage ELISA on captured anti-CD28 Fab, wells pre-incubated with CD28 antigen as competitor;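 note: crude clonal phage supernatants added without washing, bound phage read out by HRP-coupled anti-M13 antibody, reference wells given blocking buffer only instead of CD28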
Target sequence in this assay (VH, as listed by the source, chain 1 of 2): as the sequence (VH, as listed by the source, chain 1 of 2) above
Target sequence in this assay (VL, as listed by the source, chain 2 of 2): as the sequence (VL, as listed by the source, chain 2 of 2) above

| Binder | Anti-CD28 Fab signal in the presence of CD28 (phage binding ELISA) |
| --- | --- |
| B1 | 0.08 |
| B2 | 0.09 |
| B3 | 0.06 |
| B4 | 0.08 |
| B5 | 0.06 |
| B6 | 0.06 |
| B7 | 0.06 |
| B8 | 0.05 |
| B9 | 0.08 |
| B10 | 0.07 |
| B11 | 0.3 |
| B12 | 0.06 |
| B13 | 0.08 |
| B14 | 0.07 |

target: Anti-CD28 Fab (SEQ ID NOs: 696, 697); assay: phage binding ELISA; Fab-coated wells pre-incubated with CD28 antigen as competitor, anti-M13 HRP detection;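 note: crude clonal phage supernatants added without washing after the CD28 pre-incubation, with wells given blocking buffer only (no CD28) as the reference, bound phage read after washing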
Target sequence in this assay (VH, as listed by the source, chain 1 of 2): as the sequence (VH, as listed by the source, chain 1 of 2) above
Target sequence in this assay (VL, as listed by the source, chain 2 of 2): as the sequence (VL, as listed by the source, chain 2 of 2) above
Procedure: as §2

| Binder | Anti-CD28 Fab signal in the presence of CD28 |
| --- | --- |
| B31 | 0.06 |
| B32 | 0.06 |

target: T2, Anti-CD28 Fab (SEQ ID NOs: 696, 697); assay: phage ELISA; captured anti-CD28 Fab pre-incubated with CD28 antigen as competitor, anti-M13 HRP detection;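 note: crude clonal phage supernatants screened by ELISA, with wells pre-incubated with CD28 antigen in blocking buffer, compared against wells given blocking buffer alone as control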
Procedure: as §1, §2

| Binder | Anti-CD28 Fab signal in the presence of CD28 (phage binding ELISA) |
| --- | --- |
| B29 | 0.06 |
| B30 | 0.07 |
